Experimental data taken from US11534478B2, “Compositions and methods for treating cancer” (Biokine Therapeutics Ltd., priority 2015, dated 2022).
Where a SMILES comes first, the peptide text is derived from it. Bridges are numbered along the chain shown (N, C = ends). [ ]: non-standard residue; d: D form. The star is where a group is joined. 2Nal = N[C@@H](Cc1ccc2ccccc2c1)C(=O)O; Benzoyl(4-F) = O=C(c1ccc(F)cc1)*; Cit = NC(=O)NCCC[C@H](N)C(=O)O

Columns and labels:
[1] = target: KIR2DL3 (Homo sapiens, UniProt P10321+P43628); conditions: cited from earlier work
[2] = in vivo
[3] = target: T1, ID02 (Homo sapiens, UniProt Q6ZQW0); conditions: D isomer; cited from earlier work
T1 sequence (Q6ZQW0 1-407): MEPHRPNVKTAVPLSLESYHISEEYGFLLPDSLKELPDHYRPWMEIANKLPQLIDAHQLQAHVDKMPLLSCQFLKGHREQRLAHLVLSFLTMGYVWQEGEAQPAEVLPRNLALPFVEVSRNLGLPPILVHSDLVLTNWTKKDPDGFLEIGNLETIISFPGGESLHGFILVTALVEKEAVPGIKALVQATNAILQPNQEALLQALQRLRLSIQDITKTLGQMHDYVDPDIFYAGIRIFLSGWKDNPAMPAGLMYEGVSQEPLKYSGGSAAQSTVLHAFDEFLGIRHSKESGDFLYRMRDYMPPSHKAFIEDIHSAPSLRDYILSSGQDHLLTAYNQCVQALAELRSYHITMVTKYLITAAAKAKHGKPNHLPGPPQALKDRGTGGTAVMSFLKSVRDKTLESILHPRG

KIR2DL3, sequence (P43628 22-341): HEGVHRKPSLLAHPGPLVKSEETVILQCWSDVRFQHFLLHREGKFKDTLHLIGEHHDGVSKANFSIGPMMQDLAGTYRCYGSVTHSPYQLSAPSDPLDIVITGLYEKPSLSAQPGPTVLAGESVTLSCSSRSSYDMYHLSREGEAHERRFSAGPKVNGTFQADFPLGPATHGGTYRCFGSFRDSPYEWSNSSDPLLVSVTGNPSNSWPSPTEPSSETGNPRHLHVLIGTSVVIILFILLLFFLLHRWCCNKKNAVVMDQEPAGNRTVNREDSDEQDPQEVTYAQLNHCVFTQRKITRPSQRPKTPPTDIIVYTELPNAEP
KIR2DL3, sequence (P10321 25-366): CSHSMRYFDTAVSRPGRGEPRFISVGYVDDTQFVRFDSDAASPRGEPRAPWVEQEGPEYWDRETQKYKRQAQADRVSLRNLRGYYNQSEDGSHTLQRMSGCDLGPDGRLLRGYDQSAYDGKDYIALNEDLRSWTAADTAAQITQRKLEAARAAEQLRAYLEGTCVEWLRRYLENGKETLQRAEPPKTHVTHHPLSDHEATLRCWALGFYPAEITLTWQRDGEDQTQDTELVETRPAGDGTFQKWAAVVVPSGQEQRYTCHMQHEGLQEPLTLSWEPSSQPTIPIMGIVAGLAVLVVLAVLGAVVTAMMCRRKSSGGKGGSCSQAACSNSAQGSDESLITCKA
KIR2DL3, sequence (P61769 21-119 partner): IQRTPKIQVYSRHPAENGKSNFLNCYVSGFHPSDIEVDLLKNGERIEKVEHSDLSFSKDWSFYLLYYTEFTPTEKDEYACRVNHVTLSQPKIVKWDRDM

| Molecule | inhibition of KIR2DL3 [1] | other results |
| --- | --- | --- |
| VAPWSNDYL | inhibitors of KIR2DL3 |  |
| VAPWNDAL | inhibitors of KIR2DL3 |  |
| N=C(N)NCCC[C@H](NC(=O)[C@@H]1CSSC[C@H](NC(=O)[C@H](Cc2ccc3ccccc3c2)NC(=O)[C@H](CCCNC(=N)N)NC(=O)[C@H](CCCNC(=N)N)NC(=O)c2ccc(F)cc2)C(=O)N[C@@H](Cc2ccc(O)cc2)C(=O)N[C@@H](CCCNC(N)=O)C(=O)N[C@@H](CCCCN)C(=O)N[C@H](CCCCN)C(=O)N2CCC[C@H]2C(=O)N[C@@H](Cc2ccc(O)cc2)C(=O)N[C@@H](CCCNC(=N)N)C(=O)N[C@@H](CCCNC(N)=O)C(=O)N1)C(N)=O [BL-8040, 4F-benzoyl-Arg-Arg-Nal-Cys-Tyr-Cit-Lys-DLys-Pro-Tyr-Arg-Cit-Cys-Arg-NH2] ({Benzoyl(4-F)}-RR[2Nal]CY[Cit]K[dK]PYR[Cit]CR-NH2; disulfide 4-13 (inferred)) |  | safety and tolerability [2]: safe and well tolerated |
| Cn1cc(C[C@H](N)C(=O)O)c2ccccc21 [Analog 1-MT, 1-methyl tryptophan] |  | specificity for ID02 [3]: more specific for ID02 |
